Test results from PMC3955401 (Nature, 2013).
No end group written: not given here.

Experiments:
Assay in all cases: pull-down
GST-53BP1 Tudor = GST-53BP1 Tudor (UniProt Q12888 1484-1603)
[1] = target: GST-53BP1 Tudor-UDR L1619A (UniProt Q12888 1484-1631, L1619A)
GST-53BP1 Tudor-UDR = GST-53BP1 Tudor-UDR (UniProt Q12888 1484-1631)
Sequence of GST-53BP1 Tudor-UDR (Q12888 1484-1631): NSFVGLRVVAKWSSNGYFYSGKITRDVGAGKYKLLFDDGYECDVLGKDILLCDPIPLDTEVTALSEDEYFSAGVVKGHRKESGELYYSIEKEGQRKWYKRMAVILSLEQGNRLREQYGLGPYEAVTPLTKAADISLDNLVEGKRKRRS

Sequence of GST-53BP1 Tudor (Q12888 1484-1603): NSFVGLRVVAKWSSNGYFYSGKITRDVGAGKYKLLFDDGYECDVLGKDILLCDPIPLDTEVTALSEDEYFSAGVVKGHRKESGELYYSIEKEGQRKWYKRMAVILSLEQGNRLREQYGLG
Sequence of GST-53BP1 Tudor-UDR L1619A (Q12888 1484-1631 L1619A): as the sequence (Q12888 1484-1631) above, with L136A counted along it

binding result (GST-53BP1 Tudor): binds | binding result [1]: binds | binding result (GST-53BP1 Tudor-UDR): binds
Binder: YGKGGAKRHRK(dimethyl)VLRD [H4K20me2 peptide]
